T1: Orange Carotenoid Protein, wildtype, His6-tagged, Synechocystis (OCP^WT) (Synechocystis, UniProt P74102 1-317)
T1 sequence: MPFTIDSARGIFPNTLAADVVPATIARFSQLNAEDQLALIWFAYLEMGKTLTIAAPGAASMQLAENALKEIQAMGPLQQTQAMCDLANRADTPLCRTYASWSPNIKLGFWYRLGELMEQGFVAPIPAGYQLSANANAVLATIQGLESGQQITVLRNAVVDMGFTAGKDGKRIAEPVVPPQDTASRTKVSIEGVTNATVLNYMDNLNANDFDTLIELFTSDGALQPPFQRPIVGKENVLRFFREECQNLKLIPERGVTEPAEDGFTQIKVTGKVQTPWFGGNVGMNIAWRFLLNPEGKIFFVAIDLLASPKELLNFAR

T2: OCP variant devoid of the N-terminal extension, orange fraction, ΔNTE(O) (Synechocystis, UniProt P74102 21-317)
T2 sequence: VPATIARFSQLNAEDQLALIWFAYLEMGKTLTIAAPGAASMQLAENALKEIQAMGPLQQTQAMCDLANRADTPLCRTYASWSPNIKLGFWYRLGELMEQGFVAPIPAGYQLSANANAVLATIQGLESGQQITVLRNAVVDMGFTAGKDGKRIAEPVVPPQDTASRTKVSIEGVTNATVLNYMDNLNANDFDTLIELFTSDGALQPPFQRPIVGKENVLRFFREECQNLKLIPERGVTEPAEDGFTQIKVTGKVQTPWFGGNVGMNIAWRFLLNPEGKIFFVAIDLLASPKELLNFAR

B1: Fluorescence Recovery Protein (FRP), His6-tagged, Synechocystis (natural protein)
chain: LQTAEAPWSQAETQSAHALFRKAYQRELDGLLATVQAQASQITQIDDLWKLHDFLSAKRHEIDGKYDDRQSVIIFVFAQLLKEGLVQAEELTFLAADKQSKIKALARL

How the values were obtained:
[1] = target: OCP variant devoid of the N-terminal extension, purple fraction, ΔNTE(P) (Synechocystis) (UniProt P74102); assay: SEC
[2] = target: T1, Orange Carotenoid Protein, wildtype, …; assay: cross-linking
[3] = target: the molecule itself; assay: cross-linking
[4] = target: T2, OCP variant devoid of the N-terminal …; assay: SEC

Row | Molecule | stoichiometry N [1] | stoichiometry N [2] | stoichiometry N [3] | Kd [4] [nM] | stoichiometry N [4]
1 | OCP variant devoid of the N-terminal extension, purple fraction, ΔNTE(P) (from UniProt P74102 21-317) (domain or fragment) | 2 | – | – | – | –
2 | B1 | – | 1 | 2 | < 1000 | 1

Source: doi:10.1101/116491 (bioRxiv, 2017)
